For assay [1], the target named is human fibrinogen (human) (UniProt P02671). In words: ELISA, GST-tagged fragment on immobilized Fg. (An ELISA detects its analyte on a solid surface through an enzyme-linked reagent.)
Assay [2] has the same target. In words: ELISA on coated Fg; Km = protein concentration at half of the maximum; R2 0.986.
The target is the same in assay [3]. Kind of assay: ELISA on coated Fg; Km = protein concentration at half of the maximum; R2 0.991.
The target is the same in assay [4]. In words: ELISA, GST-tagged fragment on immobilized Fg; apparent affinity.
For assay [5] the target is unchanged. Kind of assay: solid phase binding assay, Efb coated, Fg titrated; apparent KD; Efb coated on the well, fibrinogen titrated.
Assay [6] has the same target. In words: ELISA on coated Fg; Km = protein concentration at half of the maximum; R2 0.995.
For assay [7], the target named is Fibrinogen-D fragment (human) (UniProt P02671). Kind of assay: isothermal titration calorimetry, peptide into 10 µM Fg-D, one-site model. (In ITC the heat of successive injections is recorded.)
Sequence of Fibrinogen-D fragment (human) (P02671 130-216 limits assumed, chain 1 of 3): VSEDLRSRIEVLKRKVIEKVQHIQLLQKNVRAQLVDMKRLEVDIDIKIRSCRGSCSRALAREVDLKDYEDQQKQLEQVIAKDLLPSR
Sequence of Fibrinogen-D fragment (human) (P02675 164-491 limits assumed, chain 2 of 3, further chain): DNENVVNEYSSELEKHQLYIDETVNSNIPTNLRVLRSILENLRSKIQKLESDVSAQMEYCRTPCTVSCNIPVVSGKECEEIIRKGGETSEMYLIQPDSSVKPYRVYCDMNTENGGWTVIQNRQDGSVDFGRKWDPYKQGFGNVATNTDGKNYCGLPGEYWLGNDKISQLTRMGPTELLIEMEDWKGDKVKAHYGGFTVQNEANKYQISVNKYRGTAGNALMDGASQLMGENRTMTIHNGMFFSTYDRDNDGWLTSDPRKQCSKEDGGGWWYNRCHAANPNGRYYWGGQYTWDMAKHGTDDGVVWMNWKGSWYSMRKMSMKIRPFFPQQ
Sequence of Fibrinogen-D fragment (human) (P02679 114-432 limits assumed, chain 3 of 3, further chain): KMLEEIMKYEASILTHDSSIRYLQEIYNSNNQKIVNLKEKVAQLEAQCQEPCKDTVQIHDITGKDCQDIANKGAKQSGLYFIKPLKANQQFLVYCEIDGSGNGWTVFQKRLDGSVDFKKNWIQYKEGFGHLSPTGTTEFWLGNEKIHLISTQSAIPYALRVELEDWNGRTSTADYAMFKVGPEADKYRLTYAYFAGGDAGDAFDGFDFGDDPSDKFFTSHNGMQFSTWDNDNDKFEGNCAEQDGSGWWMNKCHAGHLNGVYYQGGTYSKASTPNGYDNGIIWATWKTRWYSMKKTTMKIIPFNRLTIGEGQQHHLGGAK
Assay [8] has as its target human fibrinogen (human) (UniProt P02671). In words: competition ELISA on coated Fg; competitor 4 nM rCoa-C GST fusion.
Assay [9] deals with Fibrinogen-D fragment (human) (UniProt P02671). Kind of assay: ITC (VP-ITC), peptide titrated into 10 µM Fg-D, one-site model.
The target is the same in assay [10]. Kind of assay: ITC (VP-ITC), fit box Model: OneSites beside the isotherm; unit not given.
For assay [11] the target is unchanged. In words: ITC (VP-ITC), fit box Model: OneSites beside the isotherm.
The target in assay [12] is human fibrinogen (human) (UniProt P02671). Kind of assay: competition ELISA on coated Fg; competitor 2 nM rCoa-C GST fusion.
Assay [13] has the same target. Kind of assay: competition ELISA on coated Fg; competitor 2 nM rEfb-N GST fusion.

Sequence of human fibrinogen (human) (P02671 20-629 limits assumed, form in doubt, chain 1 of 3): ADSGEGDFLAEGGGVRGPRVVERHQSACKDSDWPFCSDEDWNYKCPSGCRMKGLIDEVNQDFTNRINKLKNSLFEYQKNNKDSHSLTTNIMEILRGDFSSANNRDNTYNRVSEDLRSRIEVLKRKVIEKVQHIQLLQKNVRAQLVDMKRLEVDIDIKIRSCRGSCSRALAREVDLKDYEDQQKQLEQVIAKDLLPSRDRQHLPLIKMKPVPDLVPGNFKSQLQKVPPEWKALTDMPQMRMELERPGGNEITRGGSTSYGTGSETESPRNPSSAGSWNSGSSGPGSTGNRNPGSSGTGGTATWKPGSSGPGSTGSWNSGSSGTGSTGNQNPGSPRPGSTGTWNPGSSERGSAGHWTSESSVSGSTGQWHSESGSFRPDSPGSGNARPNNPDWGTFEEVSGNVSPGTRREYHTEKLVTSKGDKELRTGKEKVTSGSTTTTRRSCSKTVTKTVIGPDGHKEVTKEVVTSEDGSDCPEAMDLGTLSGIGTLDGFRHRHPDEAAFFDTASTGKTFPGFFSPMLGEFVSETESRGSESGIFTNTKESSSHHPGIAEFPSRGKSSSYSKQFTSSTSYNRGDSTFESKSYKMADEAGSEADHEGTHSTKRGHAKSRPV
Sequence of human fibrinogen (human) (P02675 31-491 limits assumed, form in doubt, chain 2 of 3, further chain): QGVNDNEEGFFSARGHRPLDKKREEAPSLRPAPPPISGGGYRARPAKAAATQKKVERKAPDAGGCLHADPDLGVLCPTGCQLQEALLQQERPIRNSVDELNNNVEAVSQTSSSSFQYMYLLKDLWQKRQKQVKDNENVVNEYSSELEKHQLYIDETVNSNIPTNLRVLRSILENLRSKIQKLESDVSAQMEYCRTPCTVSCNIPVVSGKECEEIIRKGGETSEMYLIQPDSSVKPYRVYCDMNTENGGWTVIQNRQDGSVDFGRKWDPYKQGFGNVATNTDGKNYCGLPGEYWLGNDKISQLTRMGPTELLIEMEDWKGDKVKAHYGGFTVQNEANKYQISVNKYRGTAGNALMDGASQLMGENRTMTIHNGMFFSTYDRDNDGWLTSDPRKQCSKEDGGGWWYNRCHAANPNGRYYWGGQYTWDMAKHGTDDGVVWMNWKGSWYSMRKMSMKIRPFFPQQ
Sequence of human fibrinogen (human) (P02679 27-453 limits assumed, form in doubt, chain 3 of 3, further chain): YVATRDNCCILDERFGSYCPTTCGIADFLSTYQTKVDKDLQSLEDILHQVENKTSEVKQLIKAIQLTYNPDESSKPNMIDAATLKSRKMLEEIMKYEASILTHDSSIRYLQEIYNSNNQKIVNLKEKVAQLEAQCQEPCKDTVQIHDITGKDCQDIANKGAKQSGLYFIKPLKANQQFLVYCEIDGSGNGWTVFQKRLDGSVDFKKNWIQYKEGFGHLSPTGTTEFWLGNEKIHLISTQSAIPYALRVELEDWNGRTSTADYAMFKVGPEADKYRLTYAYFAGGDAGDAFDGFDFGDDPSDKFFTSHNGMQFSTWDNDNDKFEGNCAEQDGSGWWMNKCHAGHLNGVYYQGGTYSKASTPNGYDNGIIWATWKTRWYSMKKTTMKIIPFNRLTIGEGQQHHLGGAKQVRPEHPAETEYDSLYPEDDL

Usually EC50 stands for the midpoint of the concentration-response curve. Low values mean higher potency in that assay, high ones lower potency in that assay. In the assay with human fibrinogen (human) [1], “Coa-C (Coa 311-636) (from UniProt P08515 1-218)” registered an EC50 of 0.0075 µM. The term Km denotes the concentration of substrate that gives half-maximal velocity. With “Coa-F (Coa 311-505) (from UniProt P08515 1-218)”, the Km with human fibrinogen (human) [2] amounted to 3.2 nM. Consider “Coa-N (Coa 27-310) (from UniProt P08515 1-218)”, for which the Km in the assay with human fibrinogen (human) [3] was 204 nM. As to Coa-R (Coa 506-636), the Kd in the assay with human fibrinogen (human) [4] was 0.0008 µM. For “Extracellular fibrinogen binding protein (Efb), full-length secreted form 30-165, His-tagged (from UniProt A6QG59 30-165)”, in the assay with human fibrinogen (human) [5], the Kd worked out at 0.001 µM. For “recombinant Coagulase, Coa (27-636) (from UniProt P08515 1-218)”, the Km in the assay with human fibrinogen (human) [6] worked out at 8.9 nM. Consider sCoa-RI3 (Coa 502-528) (peptide), for which, in assay [7], the Kd worked out at 0.124 µM. The IC50 (read off the curve) with human fibrinogen (human) [8] stood at 10 µM. In addition, the N (binding ratio) in assay [9] was 0.9.

For sCoa-RV1 (Coa 610-636) (peptide), the Kd in assay [7] turned out to be 0.139 µM. In the assay with human fibrinogen (human) [8], this substance registered an IC50 (read off the curve) of 10 µM. In [10], the ΔH is -39800 and the ΔS was -101. In addition, the N (binding ratio) in [11] was found to be 0.679. The N (binding ratio) in [9] came to 0.68. Turning to synthetic peptide Coa-O (Coa 474-505), the IC50 (read off the curve) is 9 µM in the assay with human fibrinogen (human) [12] and 2 to 3 µM with human fibrinogen (human) [13]. In the case of synthetic peptide Coa-RI (Coa 506-532), in the assay with human fibrinogen (human) [12], the IC50 (read off the curve) worked out at 3 µM. For the same substance, the binding stoichiometry in assay [7] turned out to be 0.93.

For the origin of these results see patent US20200283508A1.
